Experiment: label from the status in PepcDB records

| Sequence | protein production |
| --- | --- |
| MLAQIEQEHYSKLHEILRLCRANLKNYDESLIQRAFFMCYRAHEGEKRASGEPFFYHPVEVAKLLVTELPLDGVSVAAALLHDVIEDSGYTYEDISAELGAEVADIVEGLTKISEIMVNRETTEAEGFRKMLLSMVKDIRVILIKFCDRLHNMRTLDSLPEHRRLRMALETRDIYAPLAHRFGLGKMKVDLENLALKYIDPEMYDYLLKKVRLSRNERVAYLNKMIAPIKDDLEKQGFTVELQGRAKHLYSIYNKMRMKNKKFDDIHDLYGIRVIIDTEKISDCFAVYGYITQQFPPIPQHFKDYISIPKHNGYQSLHSAIIGPKGHVVELQIRTRRMHEFAELGVAAHWRYKEKISKDDAALDSFLKWARELIKDADSATAFMEGFKLNLYHDEIYVFTPKGDMKVLPAGATPIDFAYAIHSEIGNGCIGAKVNGKIVRLNTELRSGDRVEVITSKSQRPKADWLKIVVTHRAKLKIRAAINEERRQEIEKGRSIWEKMLSGSKKLFTENDAIRAIRQHGIKTPADLFNALAKQQISSEEVLERISHPHRPAETHESTVQARAPHKDFAEIAREVQERLGYQKDEVTIAGLNNISYSYAKCCNPVPGDDIIGFVTTGGTVKIHRKNCVNVTNENSVKSERIVSVAWNRKVDTDFLAGIRIVGEDKIGMTNQITGVISKFDTNIRTIVLNAKDGIFTCNLMIFVKNTDKLTTLMDKLRKVQGVFTVERLSN | failed |
| MGARAPFAVAGRGEIGRGQQGQAQPGGMMRALALALLLWPACAAAEFFTLKGHGGPVMGIAVGPEGQIATASFDNSVGLWTGRAPHWFEGHEAAVNTVAFQGGVLYSAGDDFTLRRWPEGTILGRHKGKITGLALSETLAATASWDGTIGLWPLDSRAPRSLDAASGVNAVAFSPDGTLLYSAGMDGVLRLWDVASGSELRQITRHGFGINEIVLNDADGWLAYGAVDGVTRILDLATGAERDFTLDRRPVLALALSPDRSQLAVGDGEGYIMVIDTASWRIARDFRATLRGPVWALAFSPDGANIHAGGIDDTMYSWPVASLSEHGKMASGERSFLKDPDQMDNGERQFARKCSICHALTPEGGRRAGPTLYRVFGRRAGTLPGYLYSDTLAGSDIVWTEESINSLFDLGPDHYIPGSKMPMQRITGAQDRADLIAYLRRATLAKESP | failed |
| MKGTKKLAWLGLLLVLPVLAQATTVTYSALTVRELGNFLMNLPTGFYAIAPAAAKNMMDTVDVFILDVREPNEFAGERIQGAVNIPIRDLPKRVGELPKGKPIIVYCKVGHRGSMAMMFLRGQGYNVQSISGGLDGWKNAGLPVVK | failed |
| MILQNKTFDLNPNDIAGLELVCQTLRNRILEVVSANGGHLSSSLGAVELIVGMHALFDCQKNPFIFDTSHQAYAHKLLTGRFESFSTLRQFKGLSGFTKPSESAYDYFIAGHSSTSVSIGVGVAKAFCLKQALGMPIALLGDGSISAGIFYEALNELGDRKYPMIMILNDNEMSISTPIGALSKALSQLMKGPFYQSFRSKVKKILSTLPESVNYLASRFEESFKLITPGVFFEELGINYIGPINGHDLSAIIETLKLAKELKEPVLIHAQTLKGKGYKIAEGRYEKWHGVGPFDLDTGLSKKSKSAILSPTEAYSNTLLELAKKDEKIVGVTAAMPSGTGLDKLIDAYPLRFFDVAIAEQHALTSSSAMAKEGFKPFVSIYSTFLQRAYDSIVHDACISSLPIKLAIDRAGIVGEDGETHQGLLDVSYLRSIPNMVIFAPRDNETLKNAVRFANEHDSSPCAFRYPRGSFALKEGVFEPSGFVLGQSELLKKEGEILLIGYGNGVGRAHLVQLALKEKNIECALLDLRFLKPLDPNLSAIVAPYQKLYVFSDNYKLGGVASAILEFLSEQNILKPVKSFEIIDEFIMHGNTALVEKSLGLDTESLTDAILKDLGQER | failed |
| YLYFNSDSFILLIAPTRSGKGVGVVIPNLLVYNQSMVILDLKQENFSITSKYRAKYGQQVFLFNPFTENGQTHRYNPLSYVREGDCKIGDILTITASFYPIDDLKNSFWNNQASNLFLGLALMISETPSLPFTIGELLRQSSGKGKPLKEYLQGIMDDREKSSSPLSESCIDALNRFIALTDNSLSNVLASFNAPLTLWANPLFDAATSANDFDLRELRKKKMTVYIGITPDYLEQAERILNLFFSQLININTKELPEHNPELKYQCLLVMDEFTAMGRIGILAKSVSYMAGYGLRLLTIIQAPSQLDSVYGKEEARTYKTNHAGQILFAPRENEDAEEYSKAIGYKTVKAKSNSKTRGELKQTDSTSDQRRAVMLPQEIKEIGMWKEIICIENLKPIFCKKVQYFNDPVFIDRLKEVSS | failed |
| MSSWRPAVRTDTGWPLIRRTARCHMLRNPKNAGWCRSSAATASWRSCTVPRASAWPTSRTAVPRPMVGYQCGQVFRACCVKSQETGDLDVGGLQETDKIIEVEEEQEDPYLNDRCRGGGPCKQQCRDTGDEVVCSCFVGYQLLSDGVSCEDVNECITGSHSCRLGESCINTVGSFRCQRDSSCGTGYELTEDNSCKDIDECESGIHNCLPDFICQNTLGSFRCRPKLQCKSGFIQDALGNCIDINECLSISAPCPIGHTCINTEGSYTCQKNVPNCGRGYHLNEEGTRCVDVDECAPPAEPCGKGHRCVNSPGSFRCECKTGYYFDGISRMCVDVNECQRYPGRLCGHKCENTLGSYLCSCSVGFRLSVDGRSCEDINECSSSPCSQECANVYGSYQCYCRRGYQLSDVDGVTCEDIDECALPTGGHICSYRCINIPGSFQCSCPSSGYRLAPNGRNCQDIDECVTGIHNCSINETCFNIQGGFRCLAFECPENYRRSAATLQQEKTDTVRCIKSCRPNDVTCVFDPVHTISHTVISLPTFREFTRPEEIIFLRAITPPHPASQANIIFDITEGNLRDSFDIIKRYMDGMTVGVVRQVRPIVGPFHAVLKLEMNYVVGGVVSHRNVVNVHIFVSEYWF | failed |
| MDATISVVCYKSKTLSNGEHPLMLRISKDGKKKYQSLGISVNPKFWDFQKNKPKPKCPNLEYLQKIILDKKLELQKKMLEIKSDQKEYSAATLIEANEKLQVAKNVDCFYKEIIAQCEINNKCGNRLVYLNSYNSLKRFTNGKLEIPFNTINVAWLEKYEKWLRSNGNKETTISLMFRTLRSTYNKAIKERCAHLSDYPFQEYKISKFDTSTQKRAIAKTDMLKFTETSQPIGQKKYVELSKDIFIFSYLCGGINFTDIANLTQENIVNGRLHYIRQKTGKLIKIGIPQEAMQIIKKYTDESNGYLFPILNVKVHKTALQKQNRIHKIRGKVNDILKTLGKRLGIEANITTYVARHSFASVLKKSGVNIALISEALGHSDLATTQIYLDSFDNEQVDEAMKNLL | failed |
| MDQTAEEKMVRERIRKKVNEVSSASQSLLSPVQDHINFTLQKAYFKCAYECFDRTRTHAEISRCAESCSVPITNAQNYFDNEMSVFQERLNRSLVVCQDKFEVAKQQKTRSEAVNDLEHCVNQTVDEAVKTLPNLVSRMKKALSITD | failed |
| MRRSPCNQGLSNLMQLFTYLAPAGQALLPYLSEISIALVACTLVMLGGEINAFLRRALRNQHFLVRTLAFIFINAFGYGLIIVKASPYVARTLAQLESGMMLTLIVSCFVVIGLWAQRNHQI | failed |
| MDENSLIYGLELQARALTPQYGESNDVCFFIATNSLKPTNQVHLIQYEEEQGSVQSKVFEHALGEVWKLNSCPRNPRLLASVYNVQKGAQVLTKAALFTLPENLNPDPEQLKSEYLPWEQVEVLDTEALGERVKTIEFHPNQDTLACVVDNKVAVMQRAESSTRVVAEVPASGSSSGSAKHTQHFTSGKWSHHHQGHQFLTLQDGNLSAYDVRDTQHCAWSINDAHGQMVRDLDCNPNKQCHLVTGGDDGYLRIWDCRMPKAPVFERSDHSHWVWCVRFNTFHDQLILSSSSDCKVLLTCAGSVSSETQVQAGLDESNFSGADAEERHKLLPDGLLQTFDQHEDSVYCAEWSNVDPWIFASLSYDGRVIISKVPKQYKYQIIF | failed |
| MALFSVFSVAQTTTYHTKNKKSISAYQEAELLQQQRRWNEAINVLDAVIQKDTGFVEAYYKVGSMYMAMGNKTAAARYFCKGADLDPSVKAFAGAYFTAGELSYNEGEYVRAKRYFGYALNVQSGDKKIKEQTPVYIAKCDFAIDMMKHPVDFKPVLMTPPINTAFAQSHPVLTADGKTLYYTTLSGLSRQDDENIVTSSYVNGKWSEPVSISDNINSKENEGTCSISMDGNSLVFVGCGKADGLGSCDIYISKKVNNVWSKPTNLGPAVNSTSWDSHPSLSADGRTLYFVSARKGGFGKEDIYVTHLDEKGIWSPAQNAGSSVNTSGTEFSPFIHADGTTLYFSSNGLLGMGGLDIFYTTGNDTTWAVPKNIGYPLNTYANDETLFITVDGAKGYYSRFDGTNVNYNSRIFLYEFDVPQSLKPGRISTFAKGHIYDKQTKKPLGARVELVDIETNTVTQAVQSDSITGEYTIVITEGKEYAVYVNRNKYLFESLNVNYKNPTSFDALTLDIYLTPIISGSHVTLNNIFFQTNSYQLEEKSISELKKLINFIQINPAQRVELAGYTDNVGTAEANLKLSAMRAKAVYDYLIQHGIKPAGITYKGYGAASPVADNNSEEGRQKNRRLEIKIL | failed |
| IKHKQLIEQVMIYIEKHLAENITLQDIADELYISRNYLGQIFKKVVGESFKNYVTRLRMEKAKKMIQEGNFLIYEVSEKVGYVNPAYFTTMFKKYTGYTPRDLIQK | failed |
| MSIYNSIGKQYSQTRVPDIRIVNAIINLLNLPKGSVIADIGAGTGGYSVALANQGLFVYAVEPSIVMRQQAVVHPQVEWFTGYAENLALPDKSVDGVISILAIHHFSHLEKSFQEMQRIIRDGTIVLLTFDIRLAQRIWLYDYFPFLWEDALRFLPLDEQINLLQENTKRRVEAIPFLLPHDLSDLFAAAAWRRPELYLKAEVRAGISSFALANQDLVEKGLELLTADLNNGEWIRKYGEIHHLQEIDIGYRFIYTTLDK | not failed |
| MSQQNTELEGIGKLRSGSLFMILAVLLAAIGILVIISAGMLGGMFSAASGNVSGVIASGIGLLVGIAIVILIGAIIGLIGILRIRSGFGILKSLGRDVGIGEIGTTLYLVGLIIIIIGALLTIVLIGFPILILGEIIALIGGILIGIGFYKVGEIYNEGLVKIGGILIVIPIDLINFVGFILAYVGLGKVRPLPTVAQQPLVPQVYQVGQGTIRNNGYAYITLYSSTPASIISAKIEGANIMSSAINPTVLQIGNNEVTIFFGNVQSLAPNTTYIITLTINIGGNIINISTTAVYQP | failed |
| MSTTYYWLCLLASIVFEVAGTSVMKLSQETWPLLGMGCMYLLLGLSYFFLARAVVKLPVGVAYAFWEGLGLTLITIVSVTLLDERLDAMRLAALGMVLAGTLLVHHGTAHGRDDEEAEAASGGEGRI | failed |
| LSASEERFQLAVSGASAGLWDWNPKTGAMYLSPHFKKIMGYEDHELPDEITGHRESIHPDDRARVLAALKAHLEHRDTYDVEYRVRTRSGDFRWIQSRGQALWNSAGEPYRMVGWIMDVTDRKRDEDALRVSREELRRL | not failed |
| MSRKPRYSLALEVEPANPNEAYRHYMKKLSYETDIADLSIDIKKGYEGIIVVDVRDAEAYKECHIPTAISIPGNKINEDTTKRLSKEKVIITYCWGPACNGATKAAAKFAQLGFRVKELIGGIEYWRKENGEVEGTLGAKADLFWNMKKESKNKKSLDGSTQ | failed |

From a protein production outcome set (Wang et al. 2014)
